Measurements from the Immune Epitope Database (IEDB).

Assays:
Experiment in all cases: IEDB peptide-MHC binding, purified MHC/competitive/radioactivity; filed as Kd, often an IC50 or EC50 that approximates it; ≥ and ≤ were set here for values at or beyond the usual limits of such assays
[1] = biological target: HLA-A*02:02
[2] = biological target: HLA-A*02:03
[3] = biological target: HLA-A*02:06
[4] = biological target: HLA-A*03:01; details: source organism: Vaccinia virus WR
[5] = biological target: HLA-A*11:01; details: source organism: Vaccinia virus WR
[6] = biological target: HLA-A*31:01; details: source organism: Vaccinia virus WR
[7] = biological target: HLA-A*33:01; details: source organism: Vaccinia virus WR
[8] = biological target: HLA-A*68:01; details: source organism: Vaccinia virus WR
[9] = source organism: Vaccinia virus WR
[10] = source organism: Dengue virus 1 Brazil/97-11/1997
[11] = source organism: Dengue virus 4 Philippines/H241/1956
[12] = source organism: SARS coronavirus Tor2
[13] = source organism: Mammarenavirus brazilense
[14] = source organism: HIV-1 M:B_ARV2/SF2
[15] = source organism: Dengue virus 3 Martinique/1243/1999

| Sequence | Kd [1, 9] [nM] | Kd [2, 9] [nM] | Kd [3, 9] [nM] | other results |
| --- | --- | --- | --- | --- |
| AISYCRAFI | 17.2 | 149 | 146 | – |
| ALYYVHSLL | 26.1 | 15000 | 3260 | – |
| AMIHKTYIDV | 335 | 26.7 | 206 | – |
| CTMERTNDLT | 4050 | 16100 | 1010 | – |
| DTCLLAISA | 4330 | 6450 | ≥ 25200 | – |
| DTGKKELAL | 116 | 156 | 14200 | – |
| DTIESAKTKI | ≥ 47900 | ≥ 50500 | ≥ 69800 | – |
| DVGCLLTDT | ≥ 77800 | ≥ 65400 | ≥ 77100 | – |
| FLSGKGLGKT | – | – | – | Kd [2, 10]: 32 nM |
| GLFDINVIGL | 0.163 | 1.43 | 240 | – |
| GVSGNIVSSV | – | – | – | Kd [2, 11]: 30.6 nM |
| HLDGEVLSL | – | – | – | Kd [1, 12]: 65.9 nM; Kd [2, 12]: 131 nM; Kd [3, 12]: 160 nM |
| IASSMKGENV | 751 | 3240 | 311 | – |
| IAVANCVRNL | 57.1 | 467 | 9120 | – |
| ILGIIITVGM | 288 | 265 | 4710 | – |
| ILSNKLLYAA | 8.09 | 1110 | 150 | – |
| ITAIYVFCI | – | – | – | Kd [1, 12]: 28.7 nM; Kd [2, 12]: 89.2 nM; Kd [3, 12]: 132 nM |
| ITPTIEDDKI | 18700 | 4200 | 1500 | – |
| ITVGMLIYSM | 47.4 | 6110 | 97.1 | – |
| IVQSVLRDI | ≥ 77800 | 101 | 1310 | – |
| KAKQLCYCPA | 308 | 188 | 339 | – |
| KCFGNTALA | – | – | – | Kd [1, 13]: 31 nM; Kd [2, 13]: 1090 nM; Kd [3, 13]: ≥ 77000 nM |
| KIILFQNNDI | 1610 | 2000 | 2170 | – |
| KLDDTGKKEL | 101 | 139 | 5530 | – |
| KLYGYASLTT | 1.88 | 0.261 | 34 | – |
| KTNTKHCPKI | ≥ 33800 | 10900 | 234 | – |
| LLDDFVEII | – | – | – | Kd [1, 12]: 136 nM; Kd [2, 12]: 523 nM; Kd [3, 12]: 159 nM |

| Sequence | Kd [1, 9] [nM] | Kd [2, 9] [nM] | Kd [3, 9] [nM] | other results |
| --- | --- | --- | --- | --- |
| LLFLNDMGKV | – | – | – | Kd [2, 11]: 6.83 nM |
| LLFMILTVA | – | – | – | Kd [2, 10]: 29.3 nM |
| LLTHGADPNA | 9610 | 7510 | 15800 | – |
| LLVQYGAKI | 206 | 358 | 1140 | – |
| LMYKGLPWNV | – | – | – | Kd [1, 12]: 1.75 nM; Kd [2, 12]: 5.34 nM; Kd [3, 12]: 37.1 nM |
| LVGPTPVNI | – | – | – | Kd [1, 14]: 38 nM; Kd [2, 14]: 17.6 nM |
| MAGVEVRYI | 293 | 201 | 2050 | – |
| MVAGGLLLAA | – | – | – | Kd [3, 11]: 19.2 nM |
| NASKFVYVSV | 4550 | 8.57 | 823 | – |
| NINFNNSSII | 6640 | 13300 | ≥ 30100 | – |
| NINIEVKLFI | 12500 | 2050 | 2320 | – |
| NLILNFLDWI | 1690 | 283 | 443 | – |
| NLYKVYNGI | 408 | 61.7 | 817 | – |
| NMDWRSLTQV | 100 | 17.4 | 1.69 | – |
| NQAAILMGL | – | – | – | Kd [3, 10]: 12.5 nM |
| NQATVLMGL | – | – | – | Kd ([3]; source organism: Dengue virus 2 Jamaica/1409/1983): 10.6 nM |
| NTKSDNIINI | ≥ 30800 | 1080 | ≥ 69800 | – |
| PAHLINKLL | 6690 | 6310 | ≥ 42300 | – |
| QLCDHRLMSA | – | – | – | Kd [2, 15]: 54.2 nM |
| QMYRKFSRCT | ≥ 25700 | 2270 | 14700 | – |
| RIVVALSSLV | 47.6 | 7.21 | 9.62 | – |
| RMGMGVTYL | – | – | – | Kd [2, 15]: 115 nM |
| RVAVNKSNK | – | – | – | Kd [4]: 6.83 nM; Kd [5]: 11.5 nM; Kd [6]: 57.7 nM; Kd [7]: ≥ 52000 nM; Kd [8]: 147 nM |
| RVMANNVKK | – | – | – | Kd [4]: 17.2 nM; Kd [5]: 16.7 nM; Kd [6]: 139 nM; Kd [7]: ≥ 77700 nM; Kd [8]: 104 nM |
| SFSNTIQSYK | – | – | – | Kd [4]: 117 nM; Kd [5]: 130 nM; Kd [6]: 220 nM; Kd [7]: 12200 nM; Kd [8]: 177 nM |
| SIENKHQRRL | 17000 | ≥ 21100 | ≥ 53900 | – |
| SIRPRVTKQY | – | – | – | Kd [4]: 884 nM; Kd [5]: 9160 nM; Kd [6]: 6270 nM; Kd [7]: ≥ 70000 nM; Kd [8]: 8010 nM |
